{
  "source": "paper PMC10167749",
  "target": "recombinant scavenger receptor cysteine-rich domain 1 of Gp340 (salivary agglutinin), expressed in insect cells (UniProt Q9UGM3)",
  "sequence (Q9UGM3 20-2413)": "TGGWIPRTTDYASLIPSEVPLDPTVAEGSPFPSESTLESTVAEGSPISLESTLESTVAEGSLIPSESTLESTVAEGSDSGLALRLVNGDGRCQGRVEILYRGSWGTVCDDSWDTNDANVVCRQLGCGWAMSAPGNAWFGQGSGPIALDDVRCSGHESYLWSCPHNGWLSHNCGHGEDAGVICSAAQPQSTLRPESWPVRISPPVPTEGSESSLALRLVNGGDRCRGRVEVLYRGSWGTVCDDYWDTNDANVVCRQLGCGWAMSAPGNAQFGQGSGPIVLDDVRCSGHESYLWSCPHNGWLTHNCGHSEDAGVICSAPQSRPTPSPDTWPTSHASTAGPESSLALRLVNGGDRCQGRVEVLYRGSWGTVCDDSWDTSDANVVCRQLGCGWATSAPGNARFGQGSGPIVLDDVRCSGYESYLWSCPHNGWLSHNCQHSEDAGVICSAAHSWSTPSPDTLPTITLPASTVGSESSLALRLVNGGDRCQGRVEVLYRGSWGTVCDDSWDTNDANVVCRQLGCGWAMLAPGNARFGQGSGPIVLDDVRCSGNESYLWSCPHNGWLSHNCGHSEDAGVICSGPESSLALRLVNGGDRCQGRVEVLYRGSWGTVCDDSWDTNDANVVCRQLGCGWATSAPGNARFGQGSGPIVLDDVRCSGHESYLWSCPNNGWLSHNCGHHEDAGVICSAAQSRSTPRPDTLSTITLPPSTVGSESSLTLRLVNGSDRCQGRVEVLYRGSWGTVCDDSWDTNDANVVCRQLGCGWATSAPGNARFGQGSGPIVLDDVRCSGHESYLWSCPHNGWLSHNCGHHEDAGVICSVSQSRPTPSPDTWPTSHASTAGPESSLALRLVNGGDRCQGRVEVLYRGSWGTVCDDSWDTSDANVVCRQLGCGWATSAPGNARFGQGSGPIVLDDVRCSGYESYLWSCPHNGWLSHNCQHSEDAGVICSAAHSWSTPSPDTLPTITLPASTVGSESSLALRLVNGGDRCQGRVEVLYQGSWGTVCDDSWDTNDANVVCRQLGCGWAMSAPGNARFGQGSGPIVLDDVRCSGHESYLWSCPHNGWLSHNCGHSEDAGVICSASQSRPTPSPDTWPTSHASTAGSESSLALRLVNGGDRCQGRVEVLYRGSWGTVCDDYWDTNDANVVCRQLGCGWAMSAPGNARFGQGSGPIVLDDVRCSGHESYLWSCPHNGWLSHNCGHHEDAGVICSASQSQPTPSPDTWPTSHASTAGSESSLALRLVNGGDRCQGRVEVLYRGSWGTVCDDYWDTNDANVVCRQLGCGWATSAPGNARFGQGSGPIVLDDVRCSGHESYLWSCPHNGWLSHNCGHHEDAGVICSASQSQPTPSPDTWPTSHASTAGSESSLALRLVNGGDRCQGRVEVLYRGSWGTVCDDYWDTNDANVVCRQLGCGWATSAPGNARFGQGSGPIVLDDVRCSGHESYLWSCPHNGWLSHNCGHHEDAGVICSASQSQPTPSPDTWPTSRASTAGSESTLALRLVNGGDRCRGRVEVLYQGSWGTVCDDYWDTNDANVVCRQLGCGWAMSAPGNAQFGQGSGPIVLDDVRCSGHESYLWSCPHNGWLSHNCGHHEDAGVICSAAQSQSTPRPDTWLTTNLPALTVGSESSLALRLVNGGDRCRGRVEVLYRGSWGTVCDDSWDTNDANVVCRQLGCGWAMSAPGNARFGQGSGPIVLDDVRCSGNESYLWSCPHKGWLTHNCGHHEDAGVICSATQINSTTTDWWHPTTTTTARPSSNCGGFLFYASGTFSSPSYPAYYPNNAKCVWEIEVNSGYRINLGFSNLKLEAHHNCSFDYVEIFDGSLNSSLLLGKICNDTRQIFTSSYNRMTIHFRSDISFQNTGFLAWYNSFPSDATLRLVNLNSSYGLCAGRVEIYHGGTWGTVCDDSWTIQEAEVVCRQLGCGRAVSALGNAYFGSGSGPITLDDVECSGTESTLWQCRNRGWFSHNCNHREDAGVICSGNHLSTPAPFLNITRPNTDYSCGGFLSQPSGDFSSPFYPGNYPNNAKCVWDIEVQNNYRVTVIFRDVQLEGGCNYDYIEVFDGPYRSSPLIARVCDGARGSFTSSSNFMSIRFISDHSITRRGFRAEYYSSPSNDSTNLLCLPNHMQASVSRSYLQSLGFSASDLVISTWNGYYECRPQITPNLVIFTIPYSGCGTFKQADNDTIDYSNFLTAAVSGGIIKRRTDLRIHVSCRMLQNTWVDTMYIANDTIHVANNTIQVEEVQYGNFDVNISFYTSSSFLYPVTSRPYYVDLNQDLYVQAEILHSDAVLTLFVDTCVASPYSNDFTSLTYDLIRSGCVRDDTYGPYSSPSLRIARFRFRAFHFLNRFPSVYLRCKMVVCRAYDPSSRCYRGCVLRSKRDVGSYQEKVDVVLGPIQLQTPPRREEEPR",
  "assay": "SPR; Biacore T200; iSRCR1 immobilised on a CM5 chip by amine coupling; analyte GtfB-CD 2-8 uM in 20 mM HEPES pH 7.4, 150 mM NaCl, 1 mM CaCl2, 20 ul/min; each concentration in triplicate; kinetic fit with Biacore Insight Evaluation software",
  "data": [
    {"binder": "catalytic domain of Streptococcus mutans (UA159) glucosyltransferase GtfB, residues 191-1051 (domain or fragment) LHFDETGAYTDTSIDTVNKDIVTTRSNLYKKYNQVYDRSAQSFEHVDHYLTAESWYRPKYILKDGKTWTQSTEKDFRPLLMTWWPSQETQRQYVNYMNAQLGINKTYDDTSNQLQLNIAAATIQAKIEAKITTLKNTDWLRQTISAFVKTQSAWNSDSEKPFDDHLQNGAVLYDNEGKLTPYANSNYRILNRTPTNQTGKKDPRYTADNTIGGYEFLLANDVDNSNPVVQAEQLNWLHFLMNFGNIYANDPDANFDSIRVDAVDNVDADLLQIAGDYLKAAKGIHKNDKAANDHLSILEAWSDNDTPYLHDDGDNMINMDNKLRLSLLFSLAKPLNQRSGMNPLITNSLVNRTDDNAETAAVPSYSFIRAHDSEVQDLIRDIIKAEINPNVVGYSFTMEEIKKAFEIYNKDLLATEKKYTHYNTALSYALLLTNKSSVPRVYYGDMFTDDGQYMAHKTINYEAIETLLKARIKYVSGGQAMRNQQVGNSEIITSVRYGKGALKATDTGDRTTRTSGVAVIEGNNPSLRLKASDRVVVNMGAAHKNQAYRPLLLTTDNGIKAYHSDQEAAGLVRYTNDRGELIFTAADIKGYANPQVSGYLGVWVPVGAAADQDVRVAASTAPSTDGKSVHQNAALDSRVMFEGFSNFQAFATKKEEYTNVVIAKNVDKFAEWGVTDFEMAPQYVSSTDGSFLDSVIQNGYAFTDRYDLGISKPNKYGTADDLVKAIKALHSKGIKVMADWVPDQMYAFPEKEVVTATRVDKFGKPVEGSQIKSVLYVADSKSSGKDQQAKYGGAFLEELQAKYPELFARKQISTGVPMDPSVKIKQWSAKYFNGTNILGRGAGYVLKDQATNTYFNISDNK", "values": [
      {"measurement": "koff", "result": 0.00152, "unit": "s⁻¹"},
      {"measurement": "kon", "result": 2990, "unit": "M⁻¹ s⁻¹"}
    ]}
  ]
}
